We go through three molecules from US20240391992A1 (Eli Lilly, published 2024).

For one test, the target named is mouse XCL1 (mouse) (UniProt P47993). Kind of test: flow cytometry, 293T cells with 1 ug/mL chemokine and 100 nM isotype control antibody, anti-human-Fc/PE. A general note: In flow cytometry, cells or beads pass a laser one at a time.
Test [1] concerns the target cynomolgus (cyno) XCL1 (cynomolgus). The description is as above.
In a further test the target is human XCL2 (human) (UniProt Q9UBD3). The description is as above.
A further test deals with rat XCL1 (rat) (UniProt P51672). Described as above.
Sequence of rat XCL1 (rat) (P51672 22-114 limits assumed): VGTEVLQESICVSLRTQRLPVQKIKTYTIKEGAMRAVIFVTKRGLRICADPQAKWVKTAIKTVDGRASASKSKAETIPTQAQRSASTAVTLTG
Another test deals with human XCL1 (human) (UniProt P47992). The description is as above.
In another test the target is T1, human XCR1 (human, UniProt P46094 1-333).
T1 sequence (looked up): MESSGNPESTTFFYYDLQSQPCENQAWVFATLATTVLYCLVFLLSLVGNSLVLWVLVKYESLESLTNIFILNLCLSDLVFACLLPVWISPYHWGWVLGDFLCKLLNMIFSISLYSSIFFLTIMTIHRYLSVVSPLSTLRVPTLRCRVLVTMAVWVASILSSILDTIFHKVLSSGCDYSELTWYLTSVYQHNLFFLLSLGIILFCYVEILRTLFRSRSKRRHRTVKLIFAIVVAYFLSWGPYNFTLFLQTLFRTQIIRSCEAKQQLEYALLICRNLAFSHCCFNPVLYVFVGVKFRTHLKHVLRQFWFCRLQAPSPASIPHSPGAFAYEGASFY
Kind of test: cell-based or functional assay.

Sequence of mouse XCL1 (mouse) (P47993 22-114 limits assumed): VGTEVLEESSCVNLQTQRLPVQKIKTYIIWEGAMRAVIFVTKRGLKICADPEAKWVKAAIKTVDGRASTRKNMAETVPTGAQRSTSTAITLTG

Take hIgG1-AAS isotype control antibody: the MFI in the test with mouse XCL1 (mouse) came to 8 MFI; in test [1] it was 8.4 MFI; in the test with human XCL2 (human), 8.6 MFI; with rat XCL1 (rat) it was 8.2 MFI; with human XCL1 (human), 7.6 MFI.

B1: human XCL1 (ligand)
chain: VGSEVSDKRTCVSLTTQRLPVSRIKTYTITEGSLRAVIFITKRGLKVCADPQATWVRDVVRSMDRKSNTRNNMIQTKPTGTQQSTNTAVTLTG
Take B1: the “GeoMean EC50 (nM), migration of XCR1-expressing Ba/F3 cells (Boyden chamber)” value with human XCR1 stood at 858 nM.

B2: Human XCL1 CC3 (ligand)
chain: VGSEVSDKRTCVSLTTQRLPCSRIKTYTITEGSLRAVIFITKRGLKVCADPQATWVRDCVRSMDRKSNTRNNMIQTKPTGTQQSTNTAVTLTG
B2: the “GeoMean EC50 (nM), migration of XCR1-expressing Ba/F3 cells (Boyden chamber)” value with human XCR1 amounted to 115 nM.
